The values below come from paper PMC11150526, “Pseudomonas aeruginosa gene PA4880 encodes a Dps-like protein with a Dps fold, bacterioferritin-type ferroxidase centers, and endonuclease activity” (Frontiers in Molecular Biosciences, 2024).

Data set [1] concerns the molecule itself. Nature of the data set: SEC; calibrated Superdex 200 Increase 10/300 GL; 50 mM Tris pH 7.5, 1 mM MgSO4; also run after titration with Fe2+ (0 h and 24 h), and after MgSO4 was added back to disassembled protein (only partial reassembly).
Data set [2] concerns the molecule itself. Nature of the data set: crystal structure; Pa DpsL-dimer (also called Pa DpsL-monomer); protein purified without MgSO4; crystals from 8% PEG 6,000, 100 mM MES pH 6.0, 100 mM MgCl2; 1.3 A; one molecule in the asymmetric unit, dimer by crystallographic symmetry (PISA).

B1: Pseudomonas aeruginosa Dps-like protein (product of gene PA4880) (natural protein, Pseudomonas aeruginosa PAO1, UniProt Q9HUT3 1-177, looked up)
chain: MTTVQLTDVQTLRDRARKNIQEGAVTEGYSADRQTVLRLLNEALATELVCFLRYKRHYFMATGLKASIAAAEFLEHANQEMQHADQLAERIMQLGGEPDFNPRGLEERSHAEYVEGKTLKDMVTENLIAERIAIDSYREIITYLGNDDPTTRRIFEEILAQEEEHADDMADILDDLA
notes: Product of gene PA4880 of P. aeruginosa PAO1 (annotated as probable bacterioferritin); The gene was synthesised with silent, codon-optimising mutations and cloned NdeI/BamHI into pET11a; The structures number residues from Met1; No tag is mentioned; As isolated it carries di-iron ferroxidase centres (8-10 Fe per 12-mer); also called Pa DpsL; PaDpsL; source: E. coli BL21-Gold (DE3), pET11a, …
Regarding B1, the “stoichiometry N” value came out at 12 in data set [1] and 2 in data set [2].
